Source: paper PMC12749359, “Chromosome compartment assembly is essential for subtelomeric gene silencing in trypanosomes” (Nature Communications, 2025)

Columns and labels:
[1] = target: T1, repressor-activator protein 1, His-tagged recombinant (T. brucei, UniProt Q387L4 1-855); assay: SPR
T1 chain: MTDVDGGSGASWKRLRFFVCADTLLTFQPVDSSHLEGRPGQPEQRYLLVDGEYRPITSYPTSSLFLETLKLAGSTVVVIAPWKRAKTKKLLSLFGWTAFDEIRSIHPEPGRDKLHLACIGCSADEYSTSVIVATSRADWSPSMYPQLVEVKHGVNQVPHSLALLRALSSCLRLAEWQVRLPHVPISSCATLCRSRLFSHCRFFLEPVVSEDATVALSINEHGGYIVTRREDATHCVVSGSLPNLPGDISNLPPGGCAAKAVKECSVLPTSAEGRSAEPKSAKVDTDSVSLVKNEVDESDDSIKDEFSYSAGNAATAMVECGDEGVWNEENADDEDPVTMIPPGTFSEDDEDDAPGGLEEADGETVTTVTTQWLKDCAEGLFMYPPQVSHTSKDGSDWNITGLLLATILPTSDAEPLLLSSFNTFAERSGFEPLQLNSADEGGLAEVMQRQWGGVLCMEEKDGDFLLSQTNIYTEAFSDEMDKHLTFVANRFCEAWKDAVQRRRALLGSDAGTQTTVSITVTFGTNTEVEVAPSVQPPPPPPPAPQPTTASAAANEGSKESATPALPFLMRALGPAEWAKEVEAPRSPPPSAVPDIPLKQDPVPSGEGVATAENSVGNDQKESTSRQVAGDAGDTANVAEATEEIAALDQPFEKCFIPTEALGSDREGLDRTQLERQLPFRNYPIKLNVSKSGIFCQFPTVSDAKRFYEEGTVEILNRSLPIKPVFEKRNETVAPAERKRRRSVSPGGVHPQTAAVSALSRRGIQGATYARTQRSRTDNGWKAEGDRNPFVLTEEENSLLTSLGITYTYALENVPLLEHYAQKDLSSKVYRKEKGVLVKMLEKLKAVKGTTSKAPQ

[2] = target: T1, repressor-activator protein 1, …; assay: SPR
[3] = target: T2, repressor-activator protein 1, His-tagged recombinant (T. brucei, UniProt Q387L4 1-855); assay: SPR; RAP1-His immobilised on NTA sensor (Nicoya OpenSPR-XT), blocked with 0.5% BSA; PIP5Pase-V5 added at 0.0008, 0.004, 0.008, 0.016 nM; 20 mM HEPES, 150 mM NaCl, 10 mM KCl, 10 mM MgCl2, 10 mM CaCl2, 0.2% NP-40; three replicates; details: both partners purified
T2 construct: RAP1 of Trypanosoma brucei, recombinant; also called RAP1-His; his-tagged RAP1; source: recombinantly produced in E. coli
T2 sequence (looked up): T1 chain

B1: phosphatidylinositol phosphate 5-phosphatase, V5-tagged (enzyme, T. brucei, UniProt Q385E2 1-564, looked up)
chain: MRSLLEGITSTLRSAQQHQTGWDPRNATSTGVPTTAQEAFSGGVPAVAQRDLSHVEGPVSSKGGAPMDCITGYSRFSTHSPPDFPFRMLMITQNVGAIGDTAAGAKEGGEEHRRECEKQAGNDELSSDAQKDVREFLSELRLLIFEYSRREYTAHIRVSNTGDDDPSHPSAADIGGQGPPPLIDVIVVHFQEIGGKSFHTEFNNYFANALQELLPEAGWTSGLLMRANDDEDQFTAVGSVVYLSHRMCPISSILSFHHRTFVCVGDDPVTYGSSPTILFHGGKFSGAGESRKGYLLISLRLGTVVVNFLNVHLYNDKKSKEAAAASPSPYALQRQEALLETLAECAAFISPDDPLFIFGDFNTRLDVHNMLQYLKEVENLDVKVSDGDVRAPDSFWELFENPQHMGVIRPYDVEVQRLLDVVAQQSGMELAEFAVRFPPTYLCQSPRDSEEATFQIDTPVHLVNDGEDKRESGTSDRISVVRVLERLSSIPHHPYGRRRVPAWCDRVLWNPPALELMTGRRTSQSVAGSSATAHGGTGVGALRRYVYRSVALRHTDHAAVTLFF
notes: PIP5Pase of Trypanosoma brucei, endogenous allele tagged at the C-terminus (pMOTag3V5) in Lister 427 single-marker cells; also called PIP5Pase; PIP5Pase-V5; source: T. brucei bloodstream forms, endogenously tagged allele, in lysate of DSS cross-linked cells (XLMS, IP); isolated from T. brucei (SPR); not shown: 3xV5 (42 amino acids), C-terminal, kept
How did the koff [1] turn out when B1 was run?
Its koff is 0.41 s⁻¹.

What about the Kd [2] of the same binder?
Its Kd is 270 nM.

What about the Kd [3] of the same binder?
Its Kd is 2.7 nM.
